Substitutions are numbered along the chain they refer to.
T1: rat serum albumin (rat)
T1 chain: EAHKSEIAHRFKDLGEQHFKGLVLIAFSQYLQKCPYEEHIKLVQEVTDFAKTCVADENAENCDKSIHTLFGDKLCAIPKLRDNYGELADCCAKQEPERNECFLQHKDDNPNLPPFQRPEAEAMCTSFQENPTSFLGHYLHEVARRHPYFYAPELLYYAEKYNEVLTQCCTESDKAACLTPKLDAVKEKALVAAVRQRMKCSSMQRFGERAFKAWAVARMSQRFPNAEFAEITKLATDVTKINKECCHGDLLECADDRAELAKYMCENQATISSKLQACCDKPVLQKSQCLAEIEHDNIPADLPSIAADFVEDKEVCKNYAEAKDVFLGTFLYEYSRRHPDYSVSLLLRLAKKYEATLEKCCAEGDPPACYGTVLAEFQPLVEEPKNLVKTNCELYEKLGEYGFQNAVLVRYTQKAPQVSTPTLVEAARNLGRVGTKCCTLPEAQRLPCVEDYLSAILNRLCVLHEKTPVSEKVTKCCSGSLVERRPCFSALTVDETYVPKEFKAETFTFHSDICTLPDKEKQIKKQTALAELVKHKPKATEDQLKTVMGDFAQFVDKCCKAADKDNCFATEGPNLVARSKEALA

T2: human RXFP1 receptor (human, UniProt Q9HBX9 1-757)
T2 sequence (looked up): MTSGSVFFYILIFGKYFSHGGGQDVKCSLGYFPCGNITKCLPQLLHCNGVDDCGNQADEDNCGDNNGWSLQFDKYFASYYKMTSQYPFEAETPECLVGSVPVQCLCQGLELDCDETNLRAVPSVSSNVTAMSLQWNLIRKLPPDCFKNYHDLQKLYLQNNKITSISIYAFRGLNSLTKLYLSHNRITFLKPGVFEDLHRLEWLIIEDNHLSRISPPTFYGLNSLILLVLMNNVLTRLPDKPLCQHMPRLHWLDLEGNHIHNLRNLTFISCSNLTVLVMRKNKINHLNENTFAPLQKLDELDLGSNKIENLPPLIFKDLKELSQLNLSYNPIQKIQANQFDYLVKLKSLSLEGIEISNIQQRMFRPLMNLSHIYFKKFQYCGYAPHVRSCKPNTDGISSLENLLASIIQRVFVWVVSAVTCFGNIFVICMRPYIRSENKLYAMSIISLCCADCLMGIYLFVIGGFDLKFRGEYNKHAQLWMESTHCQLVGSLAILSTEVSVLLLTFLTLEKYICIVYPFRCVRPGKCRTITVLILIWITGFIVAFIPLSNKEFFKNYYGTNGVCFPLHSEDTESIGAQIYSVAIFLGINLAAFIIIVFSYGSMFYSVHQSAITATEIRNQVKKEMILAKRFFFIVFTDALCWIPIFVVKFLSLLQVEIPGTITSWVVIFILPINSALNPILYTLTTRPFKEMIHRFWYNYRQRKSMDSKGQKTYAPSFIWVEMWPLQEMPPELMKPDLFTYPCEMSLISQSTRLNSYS

T3: monkey serum albumin (CySA) (monkey)
T3 chain: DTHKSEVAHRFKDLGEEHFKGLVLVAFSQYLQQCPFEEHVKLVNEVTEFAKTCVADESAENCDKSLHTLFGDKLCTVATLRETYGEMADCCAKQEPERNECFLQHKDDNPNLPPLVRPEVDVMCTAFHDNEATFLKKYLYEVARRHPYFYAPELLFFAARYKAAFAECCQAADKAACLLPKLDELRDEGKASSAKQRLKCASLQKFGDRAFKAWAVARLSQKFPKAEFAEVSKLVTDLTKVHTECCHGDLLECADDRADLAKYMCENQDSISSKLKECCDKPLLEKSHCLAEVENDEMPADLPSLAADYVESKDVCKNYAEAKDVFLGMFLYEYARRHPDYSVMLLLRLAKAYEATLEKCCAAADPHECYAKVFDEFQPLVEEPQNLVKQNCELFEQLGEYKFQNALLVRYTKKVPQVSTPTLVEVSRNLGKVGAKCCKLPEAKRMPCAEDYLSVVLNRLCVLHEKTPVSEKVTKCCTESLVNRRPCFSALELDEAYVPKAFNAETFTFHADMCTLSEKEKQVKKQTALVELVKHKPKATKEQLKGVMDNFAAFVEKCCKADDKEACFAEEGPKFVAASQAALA

B1: 0054 (other)
chain: EVQLLESGGGLVQPGGSLRLSCAASGRYIDETAVAWFRQAPGKGREFVAGIGGGVDITYYADSVKGRFTISRDNSKNTLYLQMNSLRPEDTAVYYCAARPGRPLITSKVADLYPYWGQGTLVTVSSGGGGQGGGGQGGGGQGGGGQGGGGQSWMEEVIKLCGRELVRAQIAICGMSTWSGGGSGGSGGGQLYSALANKCCHVGCTKRSLARFC
notes: also called positive control 0054; positive control molecule 0054
B2: 0065 (other)
chain: EVQLLESGGGLVQPGGSLRLSCAASGFTFLTSCMGWFRQAPGKEREGVSSIYTVGGSTFYTNSVKGRFTISRDNSKNTLYLQMNSLRPEDTAVYYCAAGSPARCRLRDPTTFDYWGQGTLVTVSSGGGGQGGGGQGGGGQGGGGQGGGGQSWMEEVIKLCGRELVRAQIAICGMSTWSGGGSGGSGGGQLYSALANKCCHVGCTKRSLARFC
notes: Single-chain fusion: anti-HSA VHH, linker, relaxin-2 B chain, linker, relaxin-2 A chain; also called fusion protein 0065
B3: 0064 (other)
chain: B2 chain with F27N, F29Y, R87Q
notes: Single-chain fusion: anti-HSA VHH, linker, relaxin-2 B chain, linker, relaxin-2 A chain; also called fusion protein 0064
B4: #7aHSA (VHH)
VHH: HVQLVESGGGSVQAGGSLRVSCVASGNTYLTSCMGWFRQAPGKEREGVASIYTVGGSTFYTNSVKGRFTISRDNAKNTVYLQMNSLQPEDTAMYYCAAGSPARCRLRDPTTFDYWGQGTQVTVSS
notes: also called clone #7
B5: #9aHSA (VHH)
VHH: DVQLVESGGGSVQAGGSLRLSCAAAEYTYLNSCLGWFRQAPGKEREGVATIYMVGGSTFYADSVKGRFTISRDNAKNTVYLMMNSLKPEDTAMYYCAAGSPARCLRRDPTTFNYWGQGTQVTVSS
notes: also called clone #9
B6: 0052 (other)
chain: EVQLLESGGGLVQPGGSLRLSCAASGFTFLTSCMGWFRQAPGKEREGVSSIYTVGGSTFYTNSVKGRFTISRDNSKNTLYLQMNSLRAEDTAVYYCAAGSPARCRLRDPTTFDYWGQGTLVTVSSPGPAPGPAPGPAPGPAPGPAPGPAPGPAPGPASWMEEVIKLCGRELVRAQIAICGMSTWSGGGSGGSGGGQLYSALANKCCHVGCTKRSLARFC
notes: Single-chain fusion: anti-HSA VHH, linker, relaxin-2 B chain, linker, relaxin-2 A chain; also called fusion protein 0052

What was measured:
[1] = target: human serum albumin (HSA) (human); test: SPR Biacore T200, fusion protein captured by anti-VHH antibody, albumin as analyte
Procedure: (§1) Coupling of an anti-VHH antibody (MonoRab™ Rabbit Anti-Camelid VHH Cocktail, Genescript, Cat No. A02014) to an S series CM5 sensor chip (GE, Cat No. 29-1049-88) was performed using an amino coupling kit (GE, Cat No. BR-1000-50). The antibody was diluted to 10 μg/mL with 10 mM sodium acetate (pH 4.5) (GE, Cat No. BR-1003-50). After the CM5 chip was activated with EDC/NHS, the diluted anti-VHH antibody was flowed over the chip to reach a surface response value of about 5000 RU, and then the chip was blocked with ethanolamine for later use.
(§2) The albumin from each species was serially diluted in a gradient with 1XHBS-EP (10 mM HEPES, pH 7.4, 150 mM NaCl, 3 mM EDTA, 0.05% Surfactant P20). The test fusion protein molecule was captured using the anti-VHH antibody-coupled chip, with a response value of about 30 RU. Then, different concentrations of serum albumin were flowed over the surface of the chip for 3 min at a flow rate of 50 μL/min, with a dissociation time of 1-10 min (the dissociation time varied depending on the species of albumin). After the end of each cycle, the chip was regenerated using 10 mM glycine-hydrochloric acid (pH 1.5) (GE, Cat No. BR-1003-54). The reaction signals were detected in real-time using Biacore T200 (GE) to obtain the association and dissociation curves, and the data obtained were fitted with a Langmuir 1:1 binding model using the BIAevaluation version 4.1 software at appropriate concentration points to obtain the affinity values.

rat serum albumin [2] = target: T1, rat serum albumin; test: as above
Procedure: as §1, §2

[3] = target: human serum albumin (HSA) (human); test: SPR Biacore T200, albumin amine-coupled, fusion protein as analyte
Procedure: (§3) Coupling of serum albumins from different species to an S series CM5 sensor chip (GE, Cat. 29-1049-88) was performed using an amino coupling kit (GE, Cat No. BR-1000-50). The albumin from each species was diluted to 2 μg/mL. After the CM5 chip was activated with EDC/NHS, the diluted albumin was flowed over the chip to reach a surface response value of about 200 (180 to 230) RU, and then the chip was blocked with ethanolamine. The blank control channel also needed to be activated with EDC/NHS and blocked with ethanolamine. […] The samples of 0051 and 0054 at different concentrations were separately flowed through the albumin-coupled and blank channels for 3 min at a flow rate of 50 μL/min, with a dissociation time of 4 min. After the end of each cycle, the chip was regenerated using 10 mM glycine-hydrochloric acid (pH 1.5) (GE, Cat. #BR-1003-54). The reaction signals were detected in real-time using Biacore T200 (GE) to obtain the association and dissociation curves, and the data obtained were fitted with a Langmuir 1:1 binding model using the BIAevaluation version 4.1 software at appropriate concentration points to obtain the affinity values.

rat serum albumin [4] = target: T1, rat serum albumin; test: as above
Procedure: as §3

[5] = target: mouse serum albumin (mSA) (mouse); test: as above
Procedure: as §3

human RXFP1 receptor = target: T2, human RXFP1 receptor; test: cell-based or functional assay
[6] = target: human serum albumin (HSA) (human); test: phage supernatant ELISA, albumin coated
[7] = target: T3, monkey serum albumin (CySA); test: phage supernatant ELISA, albumin coated
[8] = target: mouse serum albumin (mSA) (mouse); test: phage supernatant ELISA, albumin coated

Binder | Kd [1] [nM] | koff [1] [s⁻¹] | kon [1] [M⁻¹ s⁻¹] | Kd (rat serum albumin [2]) [nM] | koff (rat serum albumin [2]) [s⁻¹] | kon (rat serum albumin [2]) [M⁻¹ s⁻¹] | Kd [3] [nM] | koff [3] [s⁻¹] | kon [3] [M⁻¹ s⁻¹] | Kd (rat serum albumin [4]) [nM] | koff (rat serum albumin [4]) [s⁻¹] | kon (rat serum albumin [4]) [M⁻¹ s⁻¹] | Kd [5] [nM] | koff [5] [s⁻¹] | kon [5] [M⁻¹ s⁻¹] | EC50 (nM), cAMP production in THP1 cells, 1% HSA (human RXFP1 receptor) [nM] | EC50 (nM), cAMP production in THP1 cells, without HSA (human RXFP1 receptor) [nM] | OD450 [6] [OD450] | OD450 [7] [OD450] | OD450 [8] [OD450]
B1 | 15.8 | 0.000563 | 35700 | 183 | 0.0113 | 61500 | 0.099 | 0.000181 | 1.83e+06 | 1.06 | 0.00246 | 2.31e+06 | 1.37 | 0.0027 | 1.97e+06 | – | – | – | – | –
B2 | 9.68 | 0.000797 | 82300 | 159 | 0.00567 | 35700 | – | – | – | – | – | – | – | – | – | 23 | 2.08 | – | – | –
B3 | 5.59 | 0.00086 | 154000 | 58.5 | 0.00579 | 98900 | – | – | – | – | – | – | – | – | – | 19.8 | 8.5 | – | – | –
B4 | – | – | – | – | – | – | – | – | – | – | – | – | – | – | – | – | – | 1.69 | 1.75 | 1.12
B5 | – | – | – | – | – | – | – | – | – | – | – | – | – | – | – | – | – | 1.52 | 1.82 | 1.09
B6 | 9.65 | 0.000867 | 89900 | 145 | 0.00599 | 41300 | – | – | – | – | – | – | – | – | – | 21.5 | 5.22 | – | – | –

Source: patent publication US20250312444A1 (BEIJING TUO JIE BIOPHARMACEUTICAL, published 2025)
